From paper PMC2095792 (Nucleic Acids Research, 2007) come the findings set out here.

B1: Pop1p (natural protein)
chain: MSGSLSRGNGGKKVLNKNQLLKRNRIRNARSIRAEAVAASSTKTGTPSDLSESGSKLNVDQFISSRQFEVKQLQLAMHNSKAASSTRIFQALPRKLRRRTASHNVRRIPKRMRNRALREMRKSDQQDVLKGSSASSRKAHGLNAKQLYKARMSIKLLRLASKSTSMKLSMPPEVTSSNCHVRQKIKTLKRMIKESSTANPNIKLLNNRMGSYDCTGVNELAPIPKGRVKYTKRQKHFAWLPTHIWNAKRSHMMKRWGYQMVWAPTQKCFKLTHRLGGDTCSSDGALCMDSSYIGTIIVKDKSNDSEGDFLKSIIGKLTAERANLRKYREGQVLFQGLIYSFNEENGEDSTKPLGPCDVFWVQKDTAIIRLHPSIYTQVFNILLQHKEKLTVQDCRYSLASVTLKGAKALESLASCLRSTEYSKSFEQFKMVSMITDHNALPQRCTFAFEAIDPRHLAAPKKLNDSQRKTVNSDDILSLHENYPQDEINAVFNELCDPESRTQSYNNQNTLKEISARRYKLLTATPNSINKTTVPFKESDDPSIPLVIIRRLKTRDWIVVLPWFWLLPLWHLLNRIPRMYHIGLRQFQQIQYENKQLYFPDDYPFTQLGYIENSFYKKEASKTKWDRKPMGKRINFEKIKDIHNTKLPAYSGEIGDFFSSDWRFLQILRNGIDYLQRNDKTLELMDSKKTGQFNAQGVRDINCVNDVLEFCKDYEAKTKAMSLSIEENIPVALCKNRKCQFRTPDSISVNSSSFSLTFFPRCIIAVSCTLLERGHPKDNARIYQVPEKDLEHWLQLAKGVYRPNGRKDHDLKIPLPEVHDLIGFITSGTYHLNCGNGMGIGFIDHHAAIRQPTRYVLIRNVGTNTYRLGEWSKISV
modifications: 32P-phosphate on the RRASV site (bovine heart kinase), in the untagged radiolabelled form only
B2: Pop3p (natural protein)
chain: MSGSLKSLDKKIAKRRQVYKPVLDNPFTNEAHMWPRVHDQPLIWQLLQSSIINKLIHIQSKENYPWELYTDFNEIVQYLSGAHGNSDPVCLFVCNKDPDVPLVLLQQIPLLCYMAPMTVKLVQLPKSAMDTFKSVSKYGMLLLRCDDRVDKKFVSQIQKNVDLLQFPWLNAIKYRPTSVKLLKTTVPIVSKKRQK
modifications: 32P-phosphate on the RRASV site (bovine heart kinase), in the untagged radiolabelled form only
B3: Pop4p (natural protein)
chain: MDRTQTFIKDCLFTKCLEDPEKPFNENRFQDTLLLLPTDGGLTSRLQRQQRKSKLNLDNLQKVSQLESADKQLEKRDYQRINKNSKIALREYINNCKKNTKKCLKLAYENKITDKEDLLHYIEEKHPTIYESLPQYVDFVPMYKELWINYIKELLNITKNLKTFNGSLALLKLSMADYNGALLRVTKSKNKTLIGLQGIVIWDSQKFFIMIVKGNIIDEIKCIPKKGTVFQFEIPISDDDDSALRYSILGDRFKYRSVDRAGRKFKSRRCDDMLYYIQN
modifications: 32P-phosphate on the RRASV site (bovine heart kinase), in the untagged radiolabelled form only
B4: Rpp1p (natural protein)
chain: MLVDLNVPWPQNSYADKVTSQAVNNLIKTLSTLHMLGYTHIAINFTVNHSEKFPNDVKLLNPIDIKRRFGELMDRTGLKLYSRITLIIDDPSKGQSLSKISQAFDIVAALPISEKGLTLSTTNLDIDLLTFQYGSRLPTFLKHKSICSCVNRGVKLEIVYGYALRDVQARRQFVSNVRSVIRSSRSRGIVIGSGAMSPLECRNILGVTSLIKNLGLPSDRCSKAMGDLASLVLLNGRLRNKSHKQTIVTGGGSGNGDDVVNDVQGIDDVQTIKVVKRSMDAEQLGHASKRHKP
modifications: 32P-phosphate on the RRASV site (bovine heart kinase), in the untagged radiolabelled form only

The data set deals with the molecule itself. Kind of data set: pull-down.
B1: the binding result is on record as “binds”.
Under B2 stands “binds”.
Regarding B3, the binding result is recorded as “binds”.
Take B4: the binding result is reported as “binds”.
